Reference: patent EP4471049A1 (Zealand Pharma A/S, priority 2023, dated 2024)
Read-outs that look alike come from different tables or passages of the source. *1 amine or outer side, *2 acyl side, *3 side chain or, on linkers, in order; H or OH if unused. Bridges are numbered along the chain shown (N, C = ends). [ ]: non-standard residue; d: D form. The star is where a group is joined. 4‑Aminomethyl‑phenylacetyl = 4-aminomethyl-phenylacetyl unit, its amine closes the lactam, O=C(Cc1ccc(CN[*:1])cc1)[*:2]; NH(2-(3-pyridyl)ethyl) = c1cncc(CCN*)c1; 2Nal = N[C@@H](Cc1ccc2ccccc2c1)C(=O)O; AEF = NCCOc1ccc(C[C@H](N)C(=O)O)cc1; 3Pal = N[C@@H](Cc1cccnc1)C(=O)O; αMeL = CC(C)C[C@](C)(N)C(=O)O; Dab = NCC[C@H](N)C(=O)O

T1: human IL-23R endogenously expressed on DB cells (human, UniProt Q5VWK5 24-629)
T1 sequence (looked up): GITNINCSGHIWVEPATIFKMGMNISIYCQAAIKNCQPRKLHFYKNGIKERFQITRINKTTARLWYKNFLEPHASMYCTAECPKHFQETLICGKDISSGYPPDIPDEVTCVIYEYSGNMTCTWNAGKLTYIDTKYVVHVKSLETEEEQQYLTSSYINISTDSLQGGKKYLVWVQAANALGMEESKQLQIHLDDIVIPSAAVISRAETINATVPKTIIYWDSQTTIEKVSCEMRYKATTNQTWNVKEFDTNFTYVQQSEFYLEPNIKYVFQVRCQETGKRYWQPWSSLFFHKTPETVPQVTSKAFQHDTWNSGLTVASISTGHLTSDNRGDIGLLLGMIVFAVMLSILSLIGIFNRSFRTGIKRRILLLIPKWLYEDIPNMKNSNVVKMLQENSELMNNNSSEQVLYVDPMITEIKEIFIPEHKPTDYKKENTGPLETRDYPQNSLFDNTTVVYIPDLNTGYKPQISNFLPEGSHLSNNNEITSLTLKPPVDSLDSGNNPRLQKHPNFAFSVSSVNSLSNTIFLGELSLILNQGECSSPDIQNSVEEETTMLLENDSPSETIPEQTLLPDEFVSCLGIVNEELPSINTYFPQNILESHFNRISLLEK

T2: Nluc-IL23R fusion protein (human, UniProt Q5VWK5 22-629)
T2 construct: range 22-629; expressed with a secretion signal in HEK293 cells; used as crude membrane preparation; also called hIL-23R; human IL-23R; not shown: Nanoluc protein from the expression plasmid N1371 (Promega), N-terminal of IL-23R
T2 sequence (looked up): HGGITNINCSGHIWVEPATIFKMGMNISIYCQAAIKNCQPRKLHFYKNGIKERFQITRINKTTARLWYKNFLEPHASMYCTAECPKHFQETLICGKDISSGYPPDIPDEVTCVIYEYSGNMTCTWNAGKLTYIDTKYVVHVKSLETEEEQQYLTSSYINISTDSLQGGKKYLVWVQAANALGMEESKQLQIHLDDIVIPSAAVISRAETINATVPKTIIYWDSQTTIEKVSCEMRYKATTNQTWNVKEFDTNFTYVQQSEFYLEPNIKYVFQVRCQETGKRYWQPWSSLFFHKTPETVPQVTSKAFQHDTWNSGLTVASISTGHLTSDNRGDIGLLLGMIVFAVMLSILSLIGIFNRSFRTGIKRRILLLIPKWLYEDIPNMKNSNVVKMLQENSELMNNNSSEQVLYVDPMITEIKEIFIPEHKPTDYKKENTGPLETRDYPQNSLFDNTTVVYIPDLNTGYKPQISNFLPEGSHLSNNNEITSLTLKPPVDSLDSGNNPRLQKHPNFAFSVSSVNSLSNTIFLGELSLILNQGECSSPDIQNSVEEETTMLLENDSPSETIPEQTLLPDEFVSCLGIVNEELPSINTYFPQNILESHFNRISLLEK


Experiments:
[1] = biological target: T1, human IL-23R endogenously expressed on …; test: cell-based or functional assay
[2] = biological target: T1, human IL-23R endogenously expressed on …; test: cell-based or functional assay; remark: listed apart in the source
[3] = biological target: T1, human IL-23R endogenously expressed on …; test: cell-based or functional assay; remark: listed apart in the source
[4] = biological target: T2, Nluc-IL23R fusion protein; test: BRET competition vs TAMRA-labelled peptide, Nluc-IL23R membranes
[5] = biological target: T1, human IL-23R endogenously expressed on …; test: cell-based or functional assay; remark: listed apart in the source
[6] = biological target: T1, human IL-23R endogenously expressed on …; test: cell-based or functional assay; remark: listed apart in the source
[7] = biological target: T2, Nluc-IL23R fusion protein; test: BRET competition vs TAMRA-labelled peptide, Nluc-IL23R membranes; remark: listed apart in the source

IC50 (pSTAT3) [1] [pM] | IC50 (pSTAT3) [2] [pM] | IC50 (pSTAT3) [3] | % displacement (hIL-23R binding) [4] [%] | hIL-23 (pSTAT3) antagonist % inhibition [5] [%] | hIL-23 (pSTAT3) antagonist IC50 [5] | IC50 (pSTAT3) [6] [pM] | % displacement (hIL-23R binding) [7] [%] | Binder
28 | 28 | 28 pM | 97 | 99 | 28 pM | 28 |  | [4‑Aminomethyl‑phenylacetyl]SEWQ[Dab][AEF][2Nal][αMeL]E[Dab][3Pal]-NH2 (lactam N-10, 3-6; SMILES CC(C)C[C@]1(C)NC(=O)[C@H](Cc2ccc3ccccc3c2)NC(=O)[C@H](Cc2ccc(OCCN)cc2)NC(=O)[C@@H]2CCNC(=O)CC[C@H](NC(=O)[C@H](CO)NC(=O)Cc3ccc(cc3)CNC(=O)CC[C@@H](C(=O)N[C@@H](CCN)C(=O)N[C@@H](Cc3cccnc3)C(N)=O)NC1=O)C(=O)N[C@@H](Cc1c[nH]c3ccccc13)C(=O)N[C@@H](CCC(N)=O)C(=O)N2) [Ref 122]
 |  | 0.13 nM |  | 98 | 0.13 nM |  | 102 | [4‑Aminomethyl‑phenylacetyl]SEWQ[Dab][AEF][2Nal][αMeL]E[Dab]-{NH(2-(3-pyridyl)ethyl)} (lactam N-10, 3-6; SMILES CC(C)C[C@]1(C)NC(=O)[C@H](Cc2ccc3ccccc3c2)NC(=O)[C@H](Cc2ccc(OCCN)cc2)NC(=O)[C@@H]2CCNC(=O)CC[C@H](NC(=O)[C@H](CO)NC(=O)Cc3ccc(cc3)CNC(=O)CC[C@@H](C(=O)N[C@@H](CCN)C(=O)NCCc3cccnc3)NC1=O)C(=O)N[C@@H](Cc1c[nH]c3ccccc13)C(=O)N[C@@H](CCC(N)=O)C(=O)N2) [Compound 7]
